Biological target: T1, GST-OST1/SnRK2.6, Q940H6
T1 chain: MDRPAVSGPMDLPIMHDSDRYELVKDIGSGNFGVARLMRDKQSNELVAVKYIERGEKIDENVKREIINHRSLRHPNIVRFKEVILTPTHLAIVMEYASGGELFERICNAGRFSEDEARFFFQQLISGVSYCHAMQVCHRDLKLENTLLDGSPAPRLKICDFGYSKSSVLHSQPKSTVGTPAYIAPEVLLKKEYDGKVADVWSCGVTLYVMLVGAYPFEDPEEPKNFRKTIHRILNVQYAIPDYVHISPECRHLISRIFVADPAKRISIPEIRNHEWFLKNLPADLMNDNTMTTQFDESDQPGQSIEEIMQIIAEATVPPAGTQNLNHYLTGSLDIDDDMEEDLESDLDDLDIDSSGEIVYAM

B1: MPK12 (protein)
chain: MSGESSSGSTEHCIKVVPTHGGRYVQYNVYGQLFEVSRKYVPPIRPIGRGACGIVCAAVNSVTGEKVAIKKIGNAFDNIIDAKRTLREIKLLRHMDHENVITIKDIVRPPQRDIFNDVYIVYELMDTDLQRILRSNQTLTSDQCRFLVYQLLRGLKYVHSANILHRDLRPSNVLLNSKNELKIGDFGLARTTSDTDFMTEYVVTRWYRAPELLLNCSEYTAAIDIWSVGCILGEIMTGQPLFPGKDYVHQLRLITELVGSPDNSSLGFLRSDNARRYVRQLPRYPKQQFAARFPKMPTTAIDLLERMLVFDPNRRISVDEALGHAYLSPHHDVAKEPVCSTPFSFDFEHPSCTEEHIKELIYKESVKFNPDH
  in vitro phosphorylation assay with 32P-ATP after dephosphorylation of OST1: did not phosphorylate OST1/SnRK2.6 after dephosphorylation

— patent publication US20220154204
